Results: patent publication US8114412B2, “T. cruzi-derived neurotrophic agents and methods of use therefor” (priority 1999, dated 2012)
“Also recorded” adds a separate entry of the source.

What was measured:
[1] = tested on: PC12 cells; assay: Neurite outgrowth assay in PC12 cells; type: cell-based, rat
Source text: PC12 cells were obtained from ATCC (Manassas, Va. (Accession No. CRL-1721)) and cultured on collagen-coated dishes in RPMI 1640 supplemented with 10% horse serum and 5% fetal bovine serum (Greene, L. A. and Tishler, A. S., Proc. Natl. Acad. Sci. USA, 73: 2424-2428 (1976)). For differentiation and survival experiments, cells were washed three times in serum-free RPMI/0.2% BSA, plated in the same medium in collagen-coated plastic dishes at 2×10^5/ml, without and with growth factors, TS, recombinant proteins, synthetic peptides, for the time and concentrations indicated in the Figures.
96-well microtiter plates were coated overnight at 4° C. with the TS or peptides or fragments thereof, or with control proteins laminin (Ln) or bovine serum albumin (BSA) at 500 μg/ml. After removing the compounds, the plates were further incubated with 1% BSA for 1 hour at room temperature and immediately used as substratum for PC12 or N18 (Prasad, K. N., Biol Rev Camb Philos Soc, 66:431-451 (1991)) cells in serum-free RPMI/0.2% BSA. Neurite outgrowth was measured using a phase-contrast microscope 17 hours later.

[2] = tested on: human intestinal microvascular endothelial cells (HIMEC); assay: IL-6 secretion by HIMEC (ELISA); type: cell-based
Procedure: (§1) Primary cultures of human intestinal microvascular endothelial cells (HIMEC) isolated from normal jejunal mucosa/submucosal tissue were prepared as described (Strong et al., Gastroenterology 114: 1244-1256 (1998)). The HIMEC were cultured in fibronectin-coated plasticware in MCDB medium (Sigma) supplemented with 20% FBS, 90 μg/ml heparin and 50 μg/ml endothelial cell growth factor (Sigma). T-24 cells (ATCC Accession No. HTB-4) were cultured in M199 medium supplemented with 10% FBS. PBMC were purified by Ficoll-Paque gradient as described (Current Protocols in Immunology, pp 7.1.1-7.1.2). Vero cells (ATCC Accession No. CCL-81) were grown in RPMI medium with 5% Nu serum and infected with the Silvio X-10/4 of T. cruzi as described previously (Chuenkova et al., J. Exp. Med. 181: 1693-1703, (1995)).
(§2) Endothelial cells and T-24 cells were plated on 24-well plates at a density of 1×10^3 cells/well, while peripheral blood mononuclear cells (PBMC) were plated in the similar wells at 1×10^6/well. Triplicat cultures of cells were incubated test agents for a predetermined amount of time. […] Cytokines and chemokines released in the culture supernatants were measured by ELISA assay following the instructions of the manufacturer (Endogen). The cytokines tested were IL-1β, IL-4, IL-8, IL-10, IL-12, IFN-γ, TNF-α, and the chemokines RANTES and MCP-1. Negative controls were cells incubated in medium containing polymixin B at 10 μg/ml, and positive controls were cells incubated with bacterial LPS at the low ng/ml range (for PBMC or HIMEC) or in the μg/ml range for carcinoma T-24 cells. In some experiments, IL-1β, or TNFα were used as positive control for cytokine release.

[3] = tested on: peripheral blood mononuclear cells (PBMC); assay: IL-6 secretion by PBMC (ELISA); type: cell-based, human; set-up: IL-6 secretion by PBMC: dose or concentration left out as unconfirmed
Procedure: as §1, §2
TR peptides (Table 2) were synthesized at the Tufts Synthesis Facility (Boston, Mass.). Each peptide was purified by HPLC, and the number of amino acids and molecular weight of each peptide verified by mass spectrometry. Peptides were dissolved in growth medium (10% FCS in RPMI) and added at various concentrations to 1×10^6 PBMC/well in 24-well plates. After 24 hrs, IL-6 was assayed by ELISA in the conditioned supernatants.

[4] = tested on: IL-6 mRNA in PBMC; assay: RT-PCR of IL-6 mRNA in PBMC; type: cell-based, human
Procedure: Semiquantitative analysis of cytokine mRNA was performed by the primer-dropping method (Wong et al., Anal. Biochem. 223:251-258, […])). […] Two μg of total RNA were converted to cDNA in a volume of 20 μl using random hexamer primers according to the manufacturer's instructions (GIBCO-BRL). Synthetic DNA primers for human IL-6 were 5′[…] (SEQ ID NO:24) and 5′[…] (SEQ ID NO:25), and for GAPDH were those described in Example 1 (SEQ ID NO: 10 and SEQ ID NO:11). The PCR mixture contained 20 mM Tris-HCl pH 8.4, 50 mM KCl, 1.5 mM MgCl2, 1 mM dNTP, 200 pM primers and 1 U of Taq polymerase in 50 μl. Thermal cycling conditions were: denaturation step 95 degrees for 5 min; 35 cycles of 95 degrees 30 sec, 60 degrees 30 sec and 75 degrees 1 min, and a final step of 75 degrees for 5 min. At cycle number 9, GAPDH primers were added. Five microliters of the PCR product were alalyzed by electrophoresis through 2% agarose-gel in the presence of 1 μg/ml ethidium bromide.

[5] = tested on: human intestinal microvascular endothelial cells (HIMEC); assay: Other cytokines and chemokines in HIMEC supernatants (ELISA); type: cell-based; settings: 24 hrs; bacterial LPS 50 ng/ml
Procedure: as §2

[6] = tested on: mouse splenocytes, bone marrow cells, and peritoneal cells; assay: IL-6 secretion by naive mouse cells; type: cell-based; settings: peritoneal cells from BALB/c and other strains of mice
[7] = tested on: Akt kinase in human Schwann cells; assay: Kinase assay of Akt in vitro (GSK-3α substrate) from Schwann cell lysates; type: cell-based; settings: CD 500 ng/ml, 2 minutes
[8] = tested on: Akt kinase in human Schwann cells; assay: Immunodetection of activated Akt (Ser473) in Schwann cells
Procedure: Schwann cells, grown in 10% FCS to 70% confluency in 6-well plates, were switched to DMEM containing 0.1% FCS for 48 hours to reduce basal Akt phosphorylation. Then the cells were placed in serum-free DMEM medium for 2 hours and challenged with TS, CD or other test factors for predetermined periods of time. When the PI-3 kinase inhibitor LY294002 (Sigma) was used, the inhibitor was added to the serum-starved cells 30 minutes before challenge with TS or CD. Cell samples were lysed with lysis buffer (20 mM Tris, pH7.5, 150 mM NaCl, 1 mM EDTA, 1% Triton X-100 (t-Octylphenoxypolyethoxyethanol), 2.5 mM sodium pyrophosphate, 1 mM glycerophosphate, 1 mM Na3VO4, 1 μg/ml leupeptin and 1 mM Phenymethylsulfonyl fluoride (PMSF)). Samples (40 μg) were run on 10% SDS-Page, blotted to nitrocellulose paper and analyzed by Western (immuno) blot with monoclonal antibody specific for P-Ser473 of Akt (New England Biolabs). Reaction was visualized by chemiluminescence using the ECL kit (New England Nuclear).
Schwann cells were seeded in 10% FCS to 50-70% confluency in 10 cm Petri dishes 24 h prior transfection, performed in serum-free DMEM. Cells were maintained in 10% FCS for 24 hr and then switched to medium containing 700 μg/ml G418 (Gibco BRL) and 2% FCS for 3 days and 0.1% FCS for another 4 days with CD added to some cell monolayers. After this cells were assessed for viability by Trypan blue exclusion and by DAPI staining. At the same time cell lysates were analyzed for Akt phosphoryltion by Western (immuno) blots with monoclonal antibody specific for P-Ser473 of Akt (New England Biolabs). Reaction was visualized by chemiluminescence using the ECL kit (New England Nuclear).

B1: TS: T. cruzi trans-sialidase purified by immuno-affinity chromatography from supernatants of infected Vero cells (SEQ ID NO:2, SEQ ID NO:34) (protein, listed as Trypanosoma cruzi)
chain: MVAIADARYETSSENSLIDTVAKYSVDDGETWETQIAIKNSRVSSVSRVVDPTVIVKGNKLYVLVGSYYSSRSYWSSHGDARDWDILLAVGEVTKSTAGGKITASIKWGSPVSLKKFFPAEMEGMHTNQFLGGAGVAIVASNGNLVYPVQVTNKRKQVFSKIFYSEDDGKTWKFGKGRSDFGCSEPVALEWEGKLIINTRVDWKRRLVYESSDMEKPWVEAVGTVSRVWGPSPKSNQPGSQTSFTAVTIEGMRVMLFTHPLNFKGRCVRDRLNLWLTDNQRIYNVGQVSIGDENSAYSSVLYKDDKLYCLHEINTDEVYSLVFARLVGELRIIKSVLRSWKNWTATCPAFAPLLIQPLRRQRVVVVPLSPRLVLLAFCRQRLPKRMGGSYRCVNASTANAERVRNGLKFAGVGGGALWPVSQQGQNQRYRFANHAFTLVASVTIHEAPRAASPLLGASLDSSGGKKLLGLSYDEKHQWQPIYGSTPVTPTGSWETGKRYHLVLTMANKIGSVYIDGELLEGSGQTVVPDGRTPDISHFYVGGYKRSDMPTISHVTVNNVLLYNRRQLNTEEIRTLFLSQDLIGTEAHMDSSSDSSAHSTPSTPADSSAHSTPSTPVDSSAHSTPSTPADSSAHGTPSTPVDSSAHGTPSTPADSSAHGTPSTPVDSSAHSTPSTPVDSSAHSTPSTPVDSSAHGAPSTPADSSAHGTPSTPVDSSAHGTPSTPADSSAHSTPSTPADSSAHSTPSTPADSSAHSTPSTPVDSSAHGTPSTPADSSAHSTPSTPADSSAHGTPSTPVDSSAHSTPSTPVDSSAHGTPSTPVDSSAHSTPSTPVDSSAHGTPSTPVDSSAHSTPSTPADSSAHSTPSTPADSSAHGTPSTPVDSSAHSTPSTPADSSAHSTPSTPVDSSAHSTPSTPADSSAHGTPSTPVDSSAHGTPSTPADSSAHSTPSTPADSSAHSTPSTPADSSAHSTPSTPVDSSAHSTPSTPADSSAHSTPSTPADSSAHSTPSTPADSSAHSTPSTPVDSSAHSTPSTPADSSAHGTPSTPADSSAHSTPSTPVDSSAHSTPSTPADSSAHGTPSTPADSSAHSTPSTPADSSAHGTPSTPADSSAHSTPSTPAGSSANGTVLILPDGAALSTFSGGGLLLCACALLLHVFFMAVF
Question: With B1 as the molecule, how does the “concentration range at which TS was active in neurite extension” value [1] read?
Answer: 0.125 nM

Question: And the “time PC12 neurites remained extended” value ([1]; after a single dose of TS)?
Answer: about 24 hours

Question: And the “time until PC12 neurites became visible” value ([1]; after a single dose of TS)?
Answer: 3 h

Question: What about the “neurite outgrowth in PC12 cells” value ([1]; neurite outgrowth assay, concentration not given) of the same molecule?
Answer: induced neurite outgrowth

Question: And the “neurite outgrowth in PC12 cells” value ([1]; soluble in serum-free RPMI-1640/0.2% BSA, collagen coated dishes, 16 hours, NGF 0.1 μg/ml, VCNA 2.4 μg/ml, TS 1 μg/ml)?
Answer: induces neurite outgrowth

Question: And the “IL-6 secretion by HIMEC” value ([2]; 24 hrs culture)?
Answer: potently and specifically induced IL-6 secretion; also recorded: elevated in the conditioned supernatants in a manner dependent on the TS input

Question: What about the “bacterial LPS concentration inducing the same quantity of IL-6 in HIMEC” value ([2]; TS 1 μg/ml) of the same molecule?
Answer: 50 ng/mL

Question: And the “stimulation time for maximum IL-6 secretion in HIMEC” value ([2]; TS 1 μg/ml)?
Answer: 24 h

Question: And the “IL-6 secretion by PBMC” value ([3]; 24 hrs culture)?
Answer: potently and specifically induced IL-6 secretion; also recorded: stimulated IL-6 release

Question: And the “stimulation time for maximum IL-6 secretion in PBMC” value ([3]; TS 1 μg/ml)?
Answer: 24 h

Question: What about the “expression of IL-6 mRNA in PBMC” value ([4]; TS 1 μg/ml, 4, 10 or 24 hours) of the same molecule?
Answer: induces expression of IL-6 mRNA

Question: What about the “time of maximal upregulation of IL-6 transcripts” value ([4]; after TS stimulation) of the same molecule?
Answer: 4 to 10 h

Question: What about the “concentration of other cytokines (IL-1β, IL-4, IL-8, IL-10, IL-12, INF-γ, TNF-α, RANTES, MCP-1) in HIMEC supernatants” value [5] of the same molecule?
Answer: did not increase

Question: What about the “IL-6 secretion by naive mouse cells” value [6] of the same molecule?
Answer: potently and specifically induced IL-6 secretion; also recorded: upregulator of IL-6 secretion

B2: TS-F: recombinant full catalytic domain of TS, amino acid residues 33-666, His-tagged, expressed in E. coli (protein, listed as Trypanosoma cruzi)
chain: ETQIAIKNSRVSSVSRVVDPTVIVKGNKLYVLVGSYYSSRSYWSSHGDARDWDILLAVGEVTKSTAGGKITASIKWGSPVSLKKFFPAEMEGMHTNQFLGGAGVAIVASNGNLVYPVQVTNKRKQVFSKIFYSEDDGKTWKFGKGRSDFGCSEPVALEWEGKLIINTRVDWKRRLVYESSDMEKPWVEAVGTVSRVWGPSPKSNQPGSQTSFTAVTIEGMRVMLFTHPLNFKGRCVRDRLNLWLTDNQRIYNVGQVSIGDENSAYSSVLYKDDKLYCLHEINTDEVYSLVFARLVGELRIIKSVLRSWKNWTATCPAFAPLLIQPLRRQRVVVVPLSPRLVLLAFCRQRLPKRMGGSYRCVNASTANAERVRNGLKFAGVGGGALWPVSQQGQNQRYRFANHAFTLVASVTIHEAPRAASPLLGASLDSSGGKKLLGLSYDEKHQWQPIYGSTPVTPTGSWETGKRYHLVLTMANKIGSVYIDGELLEGSGQTVVPDGRTPDISHFYVGGYKRSDMPTISHVTVNNVLLYNRRQLNTEEIRTLFLSQDLIGTEAHMDSSSDSSAHSTPSTPADSSAHSTPSTPVDSSAHSTPSTPADSSAHGTPSTPVDSSAHGTPSTPADSSAHGTPSTPVDS
modifications: His tag
notes: recombinant full catalytic domain of TS, amino acid residues 33-666, His-tagged, expressed in E. coli
Question: With B2 as the molecule, how does the “Akt kinase activity in control GFP-transfected Schwann cells” value [7] read?
Answer: stimulation of Akt activity

Question: And the “Akt kinase activity in Schwann cells over expressing AktKI” value ([7]; listed as CD)?
Answer: inability of CD to enhance endogenous Akt enzymatic activity; also recorded: did not activate Akt kinase

Question: And the “Akt phosphorylation in Schwann cells transfected with PTEN mutant pG129R” value ([8]; CD 500 ng/ml)?
Answer: did not detectably enhance

Question: And the “phospho-Akt in Schwann cells transfected with empty vector (neo)” value ([8]; CD 500 ng/ml)?
Answer: boosted levels of phospho-Akt

Question: And the “time after which phospho-Akt not detected” value ([8]; CD 500 ng/ml)?
Answer: 15 min

Question: And the “time to activation of Schwann cell Akt kinase” value ([8]; CD 500 ng/ml)?
Answer: 1 to 5 min

Question: And the “phosphorylation/activation of Akt kinase in human Schwann cells” value ([8]; CD 500 ng/ml where stated, Western blot P-Akt (Ser473), listed as CD)?
Answer: induced transient phosphorylation of Akt kinase

Question: And the “phospho-Akt in Schwann cells over expressing PTEN” value ([8]; CD 500 ng/ml, listed as CD)?
Answer: did not result in the generation of phospho-Akt; also recorded: did not induce phosphorylation of Akt kinase
